# Measurements as given in publication PMC8968665, “Verteporfin is a substrate-selective γ-secretase inhibitor that binds the amyloid precursor protein transmembrane domain” (The Journal of Biological Chemistry, 2022).
# Assays:
# [1] = molecular target: C99 (C-terminal 99 amino acid fragment of the human amyloid precursor protein), as used for IM-MS (human) (UniProt P05067); experiment: native MS; native ion mobility-mass spectrometry (IM-MS); 20 uM C99 in 100X CMC LMPG or DDMB micelles, 200 mM ammonium acetate pH 4.5; DMSO or 0-50 uM verteporfin, incubated in the dark overnight; micelles dissociated in the instrument
# [2] = molecular target: T1, γ-secretase cleavage of C100-Flag (C99) (Homo sapiens, UniProt P05067); experiment: γ-Secretase assay, C100-FLAG cleavage, AICD by anti-Flag Western blot; assay type: biochemical; conditions: 30 nM LY411,575, 2 µM C100-Flag, 1 nM γ-secretase, Fig. S6A lane 7
# T1 construct: C100 is C99 with an added N-terminal Met residue; made in house
# Protocol: The γ-secretase-dependent proteolysis assays with both substrates (C100-FLAG and HexaHis Notch 1 JM/TM) were performed in a weak zwitterionic detergent (CHAPSO, 3-[(3- cholamidopropyl)dimethylammonio]-2-hydroxy-1-propanesulfonate) solubilized conditions ([79], [80]). C100 is C99 with an added N-terminal Met residue. […] Proteolytic reactions were initiated by adding purified substrates (either C100-FLAG(79) or HexaHis-Notch 1 JM/TM(77)) and incubating at 37 °C (16 h for C100Flag and 4 h for HexaHis-Notch 1 JM/TM). Reactions were quenched with SDS, and the cleaved intracellular domain products (AICD-FLAG released from C100-FLAG or truncated intracellular domain (NICD) released from the proteolysis of Hexa-His Notch 1 JM/TM) were visualized by Western blot using specific primary antibodies, anti-FLAG antibody for FLAG-tagged AICD, and neoepitope-specific anti-V1744 antibody for NICD ([80], [83], [84]).
# T1 sequence (P05067 672-770 limits assumed): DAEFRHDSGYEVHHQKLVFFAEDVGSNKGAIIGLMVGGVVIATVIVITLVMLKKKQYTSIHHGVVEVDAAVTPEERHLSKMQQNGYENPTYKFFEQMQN
# Chain of C99 (C-terminal 99 amino acid fragment of the human amyloid precursor protein), as used for IM-MS (P05067 672-770): as the sequence (P05067 672-770 limits assumed) above
stoichiometry N [1],C100-Flag cleavage efficiency (Western blot) [2],Molecule
2,–,"C99 (C-terminal 99 amino acid fragment of the human amyloid precursor protein), as used for IM-MS (from UniProt P05067 672-770) (domain or fragment)"
–,fully,"C[C@H](NC(=O)[C@@H](O)c1cc(F)cc(F)c1)C(=O)N[C@@H]1C(=O)N(C)c2ccccc2-c2ccccc21 [LY411,575]"
